Data on five molecules can be found in patent US20240368250A1 (Ablynx, published 2024).

Assay [1] concerns the target T1, Human serum albumin (HSA; Sigma-Aldrich Cat No. A8763) (human, UniProt P02768 25-609). Briefly: SPR Biacore 8K+, HSA on CM5 chip, pH 6.0, 1:1 fit. A general note: SPR reads the build-up and loss of mass on a sensor chip optically.
The target in assay [2] is T2, Mouse serum albumin (MSA; Albumin Bioscience Cat No. 2601) (mouse, UniProt P07724 25-608). As to the kind of experiment: SPR Biacore 8K+, MSA on CM5 chip, pH 7.4, 1:1 fit.
The target in assay [3] is T1, Human serum albumin (HSA; Sigma-Aldrich …). As to the kind of experiment: SPR Biacore 8K+, HSA on CM5 chip, pH 7.4, 1:1 fit.
The target of assay [4] is T2, Mouse serum albumin (MSA; Albumin …). Briefly: SPR Biacore 8K+, MSA on CM5 chip, pH 6.0, 1:1 fit.
In assay [5] the target is T3, Human FcRn (biotinylated human FcRn) (human, UniProt P61769 21-119).
T3 construct: Biotinylated human FcRn captured on a Series S Sensor Chip SA; also called human neonatal Fc receptor; hFcRn
Briefly: SPR Biacore 8K+, biotinylated hFcRn on SA chip (~500-600 RU), pH 6.0, bivalent analyte fit (ka1).

Assay [6] addresses T1, Human serum albumin (HSA; Sigma-Aldrich …). Briefly: SPR Biacore 8K+, HSA on C1 chip, pH 7.4, 1:1 fit.
Assay [7] deals with T3, Human FcRn (biotinylated human FcRn). As to the kind of experiment: SPR Biacore 8K+, biotinylated hFcRn on SA chip (~500-600 RU), pH 6.0, bivalent analyte fit (kd1).
For assay [8] the target is unchanged. Briefly: SPR Biacore 8K+, biotinylated hFcRn on SA chip (~500-600 RU), pH 6.0, bivalent analyte fit (KD1).
For assay [9] the target is unchanged. Briefly: SPR Biacore 8K+, biotinylated hFcRn on SA chip (~500-600 RU), pH 6.0, bivalent analyte fit.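 Further: analytes were Fc proteins binding to biotinylated human FcRn captured on a Series S streptavidin sensor chip.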
The target of assay [10] is T2, Mouse serum albumin (MSA; Albumin …). Briefly: SPR Biacore 8K+, MSA on C1 chip, pH 7.4, 1:1 fit (off-rate only).

What is called koff is the rate constant with which the complex falls apart. Low values mean a long-lived complex, high ones a short-lived complex. Broadly, the kon is the second-order rate constant of association. A higher kon goes with fast association.

B1: TP016 (Fc fusion)
chain 1: DVQLVESGGGLVQPGGSLRLSCAASGLTFSTNPMYWYRQAPGKQRELVASISSRGITNYADSVKGRFTISRDNSKNTVYLQMNSLRPEDTAVYYCRLASLSSGTVYWGQGTLVTVSSDKTHTCPPCPAPEAAGGPSVFLFPPKPKDTLMASRTPEVTCVVVDVSQEDPEVQFNWYVDGVEVHNAKTKPREEQFNSTYRVVSVLTVLAQDWLNGKEYKCKVSNKGLPSSIEKTISKAKGQPREPQVYTLPPCQEEMTKNQVSLWCLVKGFYPSDIAVEWESNGQPENNYKTTPPVLDSDGSFFLYSKLTVDKSRWQEGNVFSCSVMHEALHNAYTQKSLSLSLG
chain 2: DVQLVESGGGVVQPGGSLRLSCAASGFTFRSFGMSWVRQAPGKGPEWVSSISGSGSDTLYADSVKGRFTISRDNSKNTLYLQMNSLRPEDTALYYCTIGGSLSRSSQGTLVTVSSDKTHTCPPCPAPEAAGGPSVFLFPPKPKDTLMASRTPEVTCVVVDVSQEDPEVQFNWYVDGVEVHNAKTKPREEQFNSTYRVVSVLTVLAQDWLNGKEYKCKVSNKGLPSSIEKTISKAKGQPREPQVCTLPPSQEEMTKNQVSLSCAVKGFYPSDIAVEWESNGQPENNYKTTPPVLDSDGSFFLVSKLTVDKSRWQEGNVFSCSVMHEALHNAYTQKSLSLSLG
On to B1, for which the Kd in assay [1] worked out at 3.7 nM; in assay [2], 35 nM; in [3] it was 9.3 nM; in assay [4], 22 nM. Also, the off-rate constant (koff) in assay [1] is 0.0004 s⁻¹; in [2], 0.0042 s⁻¹; in [3], 0.00057 s⁻¹; in assay [4] it was 0.0038 s⁻¹. For the same molecule, the kon in [1] amounted to 110000 M⁻¹ s⁻¹; in assay [2] it was 120000 M⁻¹ s⁻¹; in assay [3] it was 61000 M⁻¹ s⁻¹; in [4], 170000 M⁻¹ s⁻¹.

B2: TPP-66144 (Fc fusion)
chain 1: DVQLVESGGGVVQAGGSLSISCAASGGSLSNYVLGWFRQAPGKEREFVAAINWRGDITIGPPNVEGRFTISRDNAKNTGYLQMNSLAPDDTALYYCGAGTPLNPGAYIYDWSYDYWGRGTLVTVSSDKTHTCPPCPAPEAAGGPSVFLFPPKPKDTLMISRTPEVTCVVVDVSQEDPEVQFNWYVDGVEVHNAKTKPREEQFNSTYRVVSVLTVLHQDWLNGKEYKCKVSNKGLPSSIEKTISKAKGQPREPQVYTLPPCQEEMTKNQVSLWCLVKGFYPSDIAVEWESNGQPENNYKTTPPVLDSDGSFFLYSKLTVDKSRWQEGNVFSCSVMHEALHNHYTQKSLSLSLGGGGGSGGGSEVQLVESGGGVVQPGGSLRLSCAASGFTFRSFGMSWVRQAPGKGPEWVSSISGSGSDTLYADSVKGRFTISRDNSKNTLYLQMNSLRPEDTALYYCTIGGSLSRSSQGTLVTVSSA
chain 2: DVQLVESGGGVVQAGGSLSISCAASGGSLSNYVLGWFRQAPGKEREFVAAINWRGDITIGPPNVEGRFTISRDNAKNTGYLQMNSLAPDDTALYYCGAGTPLNPGAYIYDWSYDYWGRGTLVTVSSDKTHTCPPCPAPEAAGGPSVFLFPPKPKDTLMISRTPEVTCVVVDVSQEDPEVQFNWYVDGVEVHNAKTKPREEQFNSTYRVVSVLTVLHQDWLNGKEYKCKVSNKGLPSSIEKTISKAKGQPREPQVCTLPPSQEEMTKNQVSLSCAVKGFYPSDIAVEWESNGQPENNYKTTPPVLDSDGSFFLVSKLTVDKSRWQEGNVFSCSVMHEALHNRFTQKSLSLSLG
notes: IgG4 FALA Fc knob-in-hole, C-terminal ALB23002 via 9GS linker
For B2, the kon was 808000 M⁻¹ s⁻¹ in assay [5] and 24000 M⁻¹ s⁻¹ in [6]. In addition, the figures for the Kd in [6] and in assay [8] were 51.6 nM and 103 nM, respectively. The koff in [6] came to 0.00124 s⁻¹; in [7], 0.0834 s⁻¹; in [10], 0.0842 s⁻¹. Moreover, the KD2 in assay [9] was 2.86 M. Also, in assay [9], the ka2 is 0.017 1/RUs. For the same molecule, the kd2 in [9] was found to be 0.0485 s⁻¹.

B3: TPP-66147 (Fc fusion)
chain 1: DVQLVESGGGVVQAGGSLSISCAASGGSLSNYVLGWFRQAPGKEREFVAAINWRGDITIGPPNVEGRFTISRDNAKNTGYLQMNSLAPDDTALYYCGAGTPLNPGAYIYDWSYDYWGRGTLVTVSSDKTHTCPPCPAPEAAGGPSVFLFPPKPKDTLMISRTPEVTCVVVDVSQEDPEVQFNWYVDGVEVHNAKTKPREEQFNSTYRVVSVLTVLHQDWLNGKEYKCKVSNKGLPSSIEKTISKAKGQPREPQVYTLPPCQEEMTKNQVSLWCLVKGFYPSDIAVEWESNGQPENNYKTTPPVLDSDGSFFLYSKLTVDKSRWQEGNVFSCSVMHEALHNHYTQKSLSLSLGGGGGSGGGGSGGGGSGGGGSGGGGSGGGGSGGGGSEVQLVESGGGVVQPGGSLRLSCAASGFTFRSFGMSWVRQAPGKGPEWVSSISGSGSDTLYADSVKGRFTISRDNSKNTLYLQMNSLRPEDTALYYCTIGGSLSRSSQGTLVTVSSA
chain 2: DVQLVESGGGVVQAGGSLSISCAASGGSLSNYVLGWFRQAPGKEREFVAAINWRGDITIGPPNVEGRFTISRDNAKNTGYLQMNSLAPDDTALYYCGAGTPLNPGAYIYDWSYDYWGRGTLVTVSSDKTHTCPPCPAPEAAGGPSVFLFPPKPKDTLMISRTPEVTCVVVDVSQEDPEVQFNWYVDGVEVHNAKTKPREEQFNSTYRVVSVLTVLHQDWLNGKEYKCKVSNKGLPSSIEKTISKAKGQPREPQVCTLPPSQEEMTKNQVSLSCAVKGFYPSDIAVEWESNGQPENNYKTTPPVLDSDGSFFLVSKLTVDKSRWQEGNVFSCSVMHEALHNRFTQKSLSLSLG
notes: IgG4 FALA Fc knob-in-hole, C-terminal ALB23002 via 35GS
In the case of B3, the association rate constant (kon) in assay [5] is 101000 M⁻¹ s⁻¹; in [6], 43800 M⁻¹ s⁻¹. Besides, the Kd in assay [6] amounted to 27.1 nM; in [8], 1060 nM. In addition, the koff in assay [6] was 0.00119 s⁻¹; in assay [7], 0.107 s⁻¹; in [10], 0.075 s⁻¹. The molecule further gave a KD2 in [9] of 3.17 M. The ka2 in assay [9] was 3.3e-05 1/RUs. Also, the kd2 in assay [9] came to 0.000105 s⁻¹.

B4: TPP-66152 (Fc fusion)
chain 1: DVQLVESGGGVVQAGGSLSISCAASGGSLSNYVLGWFRQAPGKEREFVAAINWRGDITIGPPNVEGRFTISRDNAKNTGYLQMNSLAPDDTALYYCGAGTPLNPGAYIYDWSYDYWGRGTLVTVSSDKTHTCPPCPAPEAAGGPSVFLFPPKPKDTLMISRTPEVTCVVVDVSQEDPEVQFNWYVDGVEVHNAKTKPREEQFNSTYRVVSVLTVLHQDWLNGKEYKCKVSNKGLPSSIEKTISKAKGQPREPQVYTLPPCQEEMTKNQVSLWCLVKGFYPSDIAVEWESNGQPENNYKTTPPVLDSDGSFFLYSKLTVDKSRWQEGNVFSCSVMHEALHNHYTQKSLSLSLG
chain 2: DVQLVESGGGVVQAGGSLSISCAASGGSLSNYVLGWFRQAPGKEREFVAAINWRGDITIGPPNVEGRFTISRDNAKNTGYLQMNSLAPDDTALYYCGAGTPLNPGAYIYDWSYDYWGRGTLVTVSSDKTHTCPPCPAPEAAGGPSVFLFPPKPKDTLMISRTPEVTCVVVDVSQEDPEVQFNWYVDGVEVHNAKTKPREEQFNSTYRVVSVLTVLHQDWLNGKEYKCKVSNKGLPSSIEKTISKAKGQPREPQVCTLPPSQEEMTKNQVSLSCAVKGFYPSDIAVEWESNGQPENNYKTTPPVLDSDGSFFLVSKLTVDKSRWQEGNVFSCSVMHEALHNRFTQKSLSLSLGGGGGSGGGGSGGGGSGGGGSGGGGSGGGGSGGGGSLKEAKEKAIEELKKAGITSDYYFDLINKAKTVEGVNALKDEILKA
notes: IgG4 FALA Fc knob-in-hole, C-terminal ABD via 35GS on chain 2
For the molecule B4, the kon in assay [5] was found to be 57500 M⁻¹ s⁻¹; in assay [6], 89500 M⁻¹ s⁻¹. Besides, the Kd in [6] turned out to be 2.24 nM; in assay [8] it was 1860 nM. Besides, the koff was 0.000201 s⁻¹ in [6], 0.107 s⁻¹ in assay [7] and 0.00111 s⁻¹ in [10].

B5: TPP-66174 (Fc fusion)
chain 1: DVQLVESGGGVVQAGGSLSISCAASGGSLSNYVLGWFRQAPGKEREFVAAINWRGDITIGPPNVEGRFTISRDNAKNTGYLQMNSLAPDDTALYYCGAGTPLNPGAYIYDWSYDYWGRGTLVTVSSDKTHTCPPCPAPEAAGGPSVFLFPPKPKDTLYITREPEVTCVVVDVSQEDPEVQFNWYVDGVEVHNAKTKPREEQFNSTYRVVSVLTVLHQDWLNGKEYKCKVSNKGLPSSIEKTISKAKGQPREPQVYTLPPCQEEMTKNQVSLWCLVKGFYPSDIAVEWESNGQPENNYKTTPPVLDSDGSFFLYSKLTVDKSRWQEGNVFSCSVMHEALHNHYTQKSLSLSLGGGGGSGGGGSGGGGSGGGGSGGGGSGGGGSGGGGSEVQLVESGGGVVQPGGSLRLSCAASGFTFRSFGMSWVRQAPGKGPEWVSSISGSGSDTLYADSVKGRFTISRDNSKNTLYLQMNSLRPEDTALYYCTIGGSLSRSSQGTLVTVSSA
chain 2: DVQLVESGGGVVQAGGSLSISCAASGGSLSNYVLGWFRQAPGKEREFVAAINWRGDITIGPPNVEGRFTISRDNAKNTGYLQMNSLAPDDTALYYCGAGTPLNPGAYIYDWSYDYWGRGTLVTVSSDKTHTCPPCPAPEAAGGPSVFLFPPKPKDTLYITREPEVTCVVVDVSQEDPEVQFNWYVDGVEVHNAKTKPREEQFNSTYRVVSVLTVLHQDWLNGKEYKCKVSNKGLPSSIEKTISKAKGQPREPQVCTLPPSQEEMTKNQVSLSCAVKGFYPSDIAVEWESNGQPENNYKTTPPVLDSDGSFFLVSKLTVDKSRWQEGNVFSCSVMHEALHNRFTQKSLSLSLG
notes: IgG4 FALA Fc (YTE) knob-in-hole, C-terminal ALB23002 via 35GS; also called ALB23002 ISVD-Fc(YTE) polypeptide
In the case of B5, the on-rate constant (kon) in [5] is 65000 M⁻¹ s⁻¹. Moreover, in assay [6], the Kd amounted to 21.5 nM, the dissociation rate constant (koff) came out at 0.00104 s⁻¹ and the on-rate (kon) worked out at 48400 M⁻¹ s⁻¹. Also, the off-rate (koff) in assay [7] is 0.00786 s⁻¹. In addition, in [8], the Kd stood at 121 nM. In addition, in assay [9], the KD2 was 2.04 M, the ka2 was 55.8 1/RUs and the kd2 was 114 s⁻¹. Further, the dissociation rate constant (koff) in assay [10] worked out at 0.0819 s⁻¹.
